From patent publication US20260258390
Changes are numbered by the printed parent chain. Names and notes keep the numbering of the source.

T1: succinyl-L-Ala-L-Ala-L-Pro-L-Phe-p-nitroanilide (SEQ ID NO: 1)
T1 chain: AAPF

B1: N74D/S99G/V102W/S126G/N198A/N212S/T254P (variant of sequence SEQ ID NO: 5) (protein)
chain: AQSVPWGISRVQAPAAHNRGLTGSGVKVAVLDTGISTHPDLNIRGGASFVPGEPSTQDGNGHGTHVAGTIAALDNSIGVLGVAPSAELYAVKVLGASGGGSWSSIAQGLEWAGNNGMHVANLSLGGPSPSATLEQAVNSATSRGVLVVAASGNSGAGSISYPARYANAMAVGATDQNNNRASFSQYGAGLDIVAPGVAVQSTYPGSTYASLSGTSMATPHVAGAAALVKQKNPSWSNVQIRNHLKNTATSLGSPNLYGSGLVNAEAATR
B2: N74D/S99G/V102W/S126G/D191E/N198G/N212S/T254P (variant of sequence SEQ ID NO: 4) (protein)
chain: B1 chain with D191E, A198G
B3: N74D/S101A/V102W (control variant of WO1995010591; sequence SEQ ID NO: 3) (protein)
chain: B1 chain with G99S, S101A, G126S, A198N, S212N, P254T
B4: wild-type subtilisin of Bacillus lentus (SEQ ID NO: 2) (protein)
chain: B1 chain with D74N, G99S, W102V, G126S, A198N, S212N, P254T
B5: N74D/S97D/S126G/P204I/T254P/S259N (variant of sequence SEQ ID NO: 6) (protein)
chain: B1 chain with S97D, G99S, W102V, A198N, P204I, S212N, S259N

Target: T1, succinyl-L-Ala-L-Ala-L-Pro-L-Phe-p-nitro …

Protein | Km pH 8.6 (mM) | Km pH 10 (mM) | kcat pH 8.6 (% of wild-type) (% of wild-type) | kcat pH 10 (% half-life of wild-type) (% of wild-type) | kcat/Km pH 8.6 (% of wild-type) (% of wild-type) | kcat/Km pH 10 (% wild-type)
B1 | 0.05 mM | 0.09 mM | 503 | 723 | 6360 | 10800 % wild-type
B2 | 0.11 mM | 0.19 mM | 579 | 719 | 3330 | 5100 % wild-type
B3 | 0.29 mM | 0.33 mM | 638 | 554 | 1390 | 2260 % wild-type
B4 | 0.63 mM | 1.34 mM | 100 | 100 | 100 | 100 % wild-type
B5 | 0.66 mM | 0.52 mM | 55 | 37 | 51 | 97 % wild-type
